Data on 29 molecules can be found in US20100292083A1 (Ablynx, published 2010).

The labels stand for the following.
T1: human IL6R (human, UniProt P08887 20-358, limits assumed)
T1 construct: Antigen of the Biacore experiments
T1 sequence (looked up): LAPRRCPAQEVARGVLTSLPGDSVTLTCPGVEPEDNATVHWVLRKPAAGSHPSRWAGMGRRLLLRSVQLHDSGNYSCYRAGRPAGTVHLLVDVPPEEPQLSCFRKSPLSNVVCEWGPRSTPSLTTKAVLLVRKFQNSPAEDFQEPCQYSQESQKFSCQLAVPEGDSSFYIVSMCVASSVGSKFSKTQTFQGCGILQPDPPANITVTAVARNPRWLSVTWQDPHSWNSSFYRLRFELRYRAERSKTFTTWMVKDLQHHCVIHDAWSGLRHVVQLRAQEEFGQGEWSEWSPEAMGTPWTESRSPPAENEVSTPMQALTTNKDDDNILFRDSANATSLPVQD

B1: IL6R65PMP13A11 (VHH)
VHH: EVQLVESGGGLVQPGGSLRLSCAASGTVFKVNAMAWYRQAPGKGRELVAGVISAGSANYADSVKGRFTISRDNAKNTLYLQMNSLRPEDTAVYYCAFVTTNSDYDLGRDYWGQGTLVTVSS
B2: IL6R65PMP18B1 (VHH)
VHH: EVQLVESGGGLVQPGGSLRLSCAASGSIFKVNAMGWYRQAPGKGRELVAGIISGGSTNYADSVKGRFTISRDNAKNTLYLQMNSLRPEDTAVYYCAFITADTDYDLGKRYWGQGTLVTVSS
notes: CDR3 library clone
B3: IL6R65PMP16H6 (VHH)
VHH: EVQLVESGGGLVQPGGSLRLSCAASGSVFRINAMAWYRQAPGKGRELVAGFVTGGSSNYADSVKGRFTISRDNAKNTLYLQMNSLRPEDTAVYYCAFVTTNSDYDLGRDYWGQGTLVTVSS
B4: IL6R65PMP18G8 (VHH)
VHH: EVQLVESGGGLVQPGGSLRLSCAASGTTFKINVMAWYRQAPGKGRELVAGIITGGTTTYADSVKGRFTISRDNAKNTLYLQMNSLRPEDTAVYYCAFVTTNSDYDLGRDYWGQGTLVTVSS
B5: IL6R65PMP19A4 (VHH)
VHH: EVQLVESGGGLVQPGGSLRLSCAASGSIFKVNAMGWYRQAPGKGRELVAGIISGGSTNYADSVKGRFTISRDNAKNTLYLQMNSLRPEDTAVYYCAFITTDTNYDLGKRSWGQGTLVTVSS
notes: CDR3 library clone
B6: IL6R65PMP13F5 (VHH)
VHH: EVQLVESGGGLVQPGGSLRLSCAASGTTFRINVMAWYRQAPGKGRELVAGIITNGSTSYADSVKGRFTISRDNAKNTLYLQMNSLRPEDTAVYYCAFVTTNSDYDLGRDYWGQGTLVTVSS
B7: IL6R65PMP13F10 (VHH)
VHH: EVQLVESGGGLVQPGGSLRLSCAASGSVFKINAMGWYRQAPGKGRELVAGLISAGSTNYADSVKGRFTISRDNAKNTLYLQMNSLRPEDTAVYYCAFVTTNSDYDLGRDYWGQGTLVTVSS
B8: IL6R65PMP13G5 (VHH)
VHH: EVQLVESGGGLVQPGGSLRLSCAASGTIFKINIMAWYRQAPGKGRELVAAIINSGSTSYADSVKGRFTISRDNAKNTLYLQMNSLRPEDTAVYYCAFVTTNSDYDLGRDYWGQGTLVTVSS
B9: IL6R65PMP19H2 (VHH)
VHH: EVQLVESGGGLVQPGGSLRLSCAASGSIFKVNAMGWYRQAPGKGRELVAGIISGGSTNYADSVKGRFTISRDNAKNTLYLQMNSLRPEDTAVYYCAFITADTDYDLGKRYWGQGTLVTVSS
notes: CDR3 library clone
B10: IL6R65PMP19H7 (VHH)
VHH: EVQLVESGGGLVQPGGSLRLSCAASGSIFKVNAMGWYRQAPGKGRELVAGIISGGSTNYADSVKGRFTISRDNAKNTLYLQMNSLRPEDTAVYYCAFITADTEYDLGKRFWGQGTLVTVSS
notes: CDR3 library clone
B11: IL6R65PMP13D2 (VHH)
VHH: EVQLVESGGGLVQPGGSLRLSCAASGTTFKVNVMAWYRQAPGKGRELVAAIINDGSTTYADSVKGRFTISRDNAKNTLYLQMNSLRPEDTAVYYCAFVTTNSDYDLGRDYWGQGTLVTVSS
B12: IL6R65PMP13D3 (VHH)
VHH: EVQLVESGGGLVQPGGSLRLSCAANGTTFKVNVMAWYRQAPGKGRELVAGVITGGTTNYADSVKGRFTISRDNAKNTLYLQMNSLRPEDTAVYYCAFVTTNSDYDLGRDYWGQGTLVTVSS
B13: IL6R65PMP18G11 (VHH)
VHH: EVQLVESGGGLVQPGGSLRLSCAASGSIFKINVMAWYRQAPGKGRELVAAIINGGTTSYADSVKGRFTISRDNAKNTLYLQMNSLRPEDTAVYYCAFVTTNSDYDLGRDYWGQGTLVTVSS
B14: IL6R65PMP18E11 (VHH)
VHH: EVQLVESGGGLVQPGGSLRLSCAASGTTFRINVMAWYRQAPGKGRELVAGIITNGSTSYADSVKGRFTISRDNAKNTLYLQMNSLRPEDTAVYYCAFVTTNSDYDLGRDYWGQGTLVTVSS
B15: IL6R65PMP13F3 (VHH)
VHH: EVQLVESGGGLVQPGGSLRLSCAASGTTFKINVMAWYRQAPGKGRELVAAIITGGTTTYADSVKGRFTISRDNAKNTLYLQMNSLRPEDTAVYYCAFVTTNSDYDLGRDYWGQGTLVTVSS
B16: IL6R65PMP18G7 (VHH)
VHH: EVQLVESGGGLVQPGGSLRLSCAASGTTFKVNVMAWYRQAPGKGRELVAGIITGGSTTYADSVKGRFTISRDNAKNTLYLQMNSLRPEDTAVYYCAFVTTNSDYDLGRDYWGQGTLVTVSS
B17: IL6R65PMP13H4 (VHH)
VHH: EVQLVESGGGLVQPGGSLRLSCAASGSAFKVNVMAWYRQAPGKGRELVAGVITDGSTNYADSVKGRFTISRDNAKNTLYLQMNSLRPEDTAVYYCAFVTTNSDYDLGRDYWGQGTLVTVSS
B18: IL6R65PMP18G12 (VHH)
VHH: EVQLVESGGGLVQPGGSLRLSCAASGSIFKINVMAWYRQAPGKGRELVAAIINSGTTSYADSVKGRFTISRDNAKNTLYLQMNSLRPEDTAVYYCAFVTTNSDYDLGRDYWGQGTLVTVSS
B19: IL6R65PMP13B3 (VHH)
VHH: EVQLVESGGGLVQPGGSLHLSCAASGTIFKINVMAWYRQAPGKGRELVAAIITDGSTTYADSVKGRFTISRDNAKNTLYLQMNSLRPEDTAVYYCAFVTTNSDYDLGRDYWGQGTLVTVSS
B20: IL6R65PMP13B2 (VHH)
VHH: EVQLVESGGGLVQPGGSLRLSCAASGTTFKVNIMAWYRQAPGKGRELVAAIITNGSTTYADSVKGRFTISRDNAKNTLYLQMNSLRPEDTAVYYCAFVTTNSDYDLGRDYWGQGTLVTVSS
B21: 32C9PMP2_C9 (VHH, name in Kabat numbering)
VHH: EVQLVESGGGLVQAGGSLRLSCAASGFTFDDYDIGWFRQAPGKGREGVSGISSSDGNTYYADSVKGRFTISSDNAKNTLYLQMNSLKAEDTAVYYCAREPPDSSWYLDGSPEFFKYWGQGTLVTVSS
notes: Humanized 32C9 variant
B22: 32C9PMP1_B11 (VHH, name in Kabat numbering)
VHH: EVQLVESGGGLVQAGGSLRLSCAASGFTFSDYDIGWFRQAPGKGREGVSGISSSDGNTYYADSVKGRFTISRDNAKNTVYLQMNSLKAEDTAVYYCAREPPDSSWYLDGSPEFFKYWGQGTQVTVSS
notes: Humanized 32C9 variant
B23: 32C9PMP1_A2 (VHH, name in Kabat numbering)
VHH: EVQLVESGGGLVQPGGSLRLSCAASGFTFDDYDIGWVRQAPGKEREWVSGISSSDGNTYYADSVKGRFTISSDNAKNTVYLQMNSLKAEDTAVYYCAREPPDSSWYLDGSPEFFKYWGQGTLVTVSS
notes: Humanized 32C9 variant
B24: 32C9PMP1_A11 (VHH, name in Kabat numbering)
VHH: EVQLVESGGGLVQPGGSLRLSCAASGFTFSDYDIGWVRQAPGKEREWVSGISSSDGNTYYADSVKGRFTISSDNAKNTVYLQMNSLKAEDTAVYYCAREPPDSSWYLDGSPEFFKYWGQGTLVTVSS
notes: Humanized 32C9 variant
B25: 32C9PMP1_B4 (VHH, name in Kabat numbering)
VHH: EVQLVESGGGLVQPGGSLRLSCAASGFTFSDYDIGWFRQAPGKGREGVSGISSSDGNTYYADSVKGRFTISSDNAKNTLYLQMNSLKAEDTAVYYCAREPPDSSWYLDGSPEFFKYWGQGTQVTVSS
notes: Humanized 32C9 variant
B26: 32C9PMP1_A3 (VHH, name in Kabat numbering)
VHH: EVQLVESGGGLVQAGGSLRLSCAASGFTFSDYDIGWVRQAPGKGREGVSGISSSDGNTYYADSVKGRFTISRDNAKNTVYLQMNSLKAEDTAVYYCAREPPDSSWYLDGSPEFFKYWGQGTQVTVSS
notes: Humanized 32C9 variant
B27: 32C9PMP1_D5 (VHH, name in Kabat numbering)
VHH: EVQLVESGGGLVQPGGSLRLSCAASGFTFDDYDIGWVRQAPGKGREGVSGISSSDGNTYYADSVKGRFTISSDNAKNTLYLQMNSLRPEDTAVYYCAREPPDSSWYLDGSPEFFKYWGQGTLVTVSS
notes: Humanized 32C9 variant
B28: 32C9PMP1_D7 (VHH, name in Kabat numbering)
VHH: EVQLVESGGGLVQPGGSLRLSCAASGFTFDDYDIGWVRQAPGKEREWVSGISSSDGNTYYADSVKGRFTISRDNAKNTLYLQMNSLKAEDTAVYYCAREPPDSSWYLDGSPEFFKYWGQGTLVTVSS
notes: Humanized 32C9 variant
B29: 32C9PMP1_A4 (VHH, name in Kabat numbering)
VHH: EVQLVESGGGLVQPGGSLRLSCAASGFTFDDYDIGWFRQAPGKEREWVSGISSSDGNTYYADSVKGRFTISSDNAKNTLYLQMNSLRPEDTAVYYCAREPPDSSWYLDGSPEFFKYWGQGTQVTVSS
notes: Humanized 32C9 variant

The first experiment addresses T1, human IL6R. Briefly: SPR (Biacore), periplasmic extract. On the procedure:
Selection outputs were analyzed by picking individual colonies and growing them overnight in 1 ml 2×YT (Yeast Tryptone) medium+100 ug/ml Carbenicillin at 37 C. Nanobody containing periplasmic extracts were prepared, diluted 1/10 in PBS and subsequently tested for antigen binding in ELISA. Clones with the highest ELISA signals were sequenced and analyzed on Biacore. […] The off-rate of the best clone from the CDR3 library was 7×10e-4 s-1.
B1 registered a koff of 0.00083 s⁻¹.
Same read-out and setting: with B2 the figure was 0.00072 s⁻¹.
Same read-out and setting: with B3 the figure was 0.00032 s⁻¹; with B4, 0.00023 s⁻¹.
For the molecule B5, the koff turned out to be 0.00089 s⁻¹.
Molecule B6 registered a koff of 0.00037 s⁻¹.
Molecule B7 showed a koff of 0.0011 s⁻¹.
Molecule B8 showed an off-rate constant (koff) of 0.00069 s⁻¹. Compared with the last molecule, the koff is about 1.6-fold lower.
Consider B9, for which the koff stood at 0.00074 s⁻¹.
The molecule B10 returned a koff of 0.0011 s⁻¹.
The same measure, in the same setting: with B11 the figure was 0.0011 s⁻¹; with B12, 0.00048 s⁻¹; with B13, 0.00033 s⁻¹.
B14: the koff was 0.00027 s⁻¹.
Still for that read-out and setting: with B15 the figure was 0.00046 s⁻¹.
B16 gave a koff of 0.0003 s⁻¹.
With B17, the koff came to 0.00052 s⁻¹.
B18 came in with a dissociation rate constant (koff) of 0.00034 s⁻¹.
As for B19, the koff worked out at 0.00076 s⁻¹. This koff is about 2.2-fold higher than that of the molecule before.
Molecule B20 had a koff of 0.0014 s⁻¹.

Another experiment has as its target T1, human IL6R. Briefly: SPR (Biacore), periplasmic extract. The source holds these as a separate data set.
In the case of B21, the binding result is listed as “no binding”.
As for B22, the binding result was “no binding”.
On to B23, for which the binding result is given as “no binding”.
As to B24, the binding result is reported as “no binding”.
On the same count and under the same terms, with B25 the entry was “no binding”; with B26, “no binding”.
B27: the binding result is on record as “no binding”.
Take B28: the binding result is “no binding”.
As for B29, the binding result is “no binding”.
